The values below come from patent publication US20240084262A1, “METHODS FOR DIFFERENTIATION OF PANCREATIC EXOCRINE CELLS FROM HUMAN INDUCED PLURIPOTENT STEM CELLS” (CEDARS-SINAI MEDICAL CENTER, priority 2020, published 2024).

Experiment [1] relates to iPSC-derived pancreatic progenitors. In words: Acinar differentiation of iPSC-derived pancreatic progenitors (ICC). In kind it is cell-based, human. The following applies: for PDX1 levels / expression / amylase positive clusters / cells: Notch modulation in the presence of FGF10. The procedure: Using the same DMEM base media, cells were then treated daily for seven days with XXI, FGF10, Noggin, Nicotinamide, and Murine Wnt3a (Peprotech). By the end of this stage, cell clustering could be seen.
Planar fixed samples were fixed with 4% paraformaldehyde in PBS for 15 minutes. Following this, they were washed three times with PBS and then incubated with 10% donkey serum with 0.1% Triton-X for one hour. Primary antibodies diluted in the 10% blocking serum were added, and the samples were let incubate for three hours at room temperature or overnight at 4 C. From here, the samples were washed three times for five minutes each with 0.1% TWEEN in PBS. Secondary antibodies diluted at 1:1000 in the blocking serum were added and the samples were allowed to sit one hour at room temperature. Three rounds of five-minute washes with PBS were performed before Hoechst was added at a 1:2000 dilution in PBS. After a 15-minute room temperature incubation, samples were washed with PBS three times before being imaged.
We performed an experiment comparing the use of notch inhibitor XXI vs notch activator sDLL-1 with FGF10. […] We added Wnt3a as it is important.

Experiment [2] shares this test system. In words: iPan Ductal maturation/specification (qPCR, ICC). The class given is cell-based, human. The procedure:
After 1 day of Phase III, on Day 7, cells were single cell dissociated with TrypLE for 3-6 minutes, washed and seeded at 33% confluency (9.5×10^4 cells/cm^2) in Phase III media plus 10 μM Rho kinase Inhibitor. On Day 8 onwards, cells were treated with Phase IV media—addition of FGF10 (25 ng/ml), EGF (50 ng/ml), and sDLL-1 (25 ng/ml, Peprotech). The base media for phase III and IV consists of DMEM, lx Pen-Strep, 1×B27 without Vitamin A (Thermo Fisher), and Vitamin C (250 μM).
For organoids, Cell Recovery Solution (Corning) was added for an hour in 4° to remove Matrigel then washed 3× with PBS. Total RNA was isolated with RLT buffer (Qiagen), syringed with 23 G needle, then extracted with RNeasy Micro Kit (Qiagen) according to the manufacturer's instructions. The concentration and the purity of RNA was determined with NanoDrop. 1-2 μg RNA was reverse transcribed to cDNA High-Capacity cDNA Reverse Transcription kit (Thermo Fisher). Real-time qPCR was performed (technical replicates, n=3-4) using SYBR Master Mix (Applied Biosystems, #4472952) and specific primer sequences to each gene (Table 1), on a CFX384 Real Time system (Bio-Rad). Human RPL13 was used as the reference gene and relative expression was determined using 2-ΔΔ Ct method.
Planar cultures were fixed with 4% PFA for 15 minutes, washed with PBS and then blocked overnight at 4° C. with 10% donkey serum containing 0.1% Triton-X100. After overnight incubation with primary antibodies at 4° C., cells were washed with 0.1% TWEEN-20 3× for 5 min, incubated with secondary antibodies for an hour at RT, and finally incubated with Hoechst 33342 (1:2000 dilution) for 15 minutes for nuclear counterstaining.
To optimize the ductal maturation phase, the effect of dissociating pancreatic progenitors on Day 7 and adding growth factor EGF and the Notch activating ligand sDLL-1 to the cultures was explored. FGF10 was also added at this time to increase proliferation of pancreatic cells. Based on our results, we incorporated a dissociation step prior to initiating EGF and Notch signaling in our defined iPan Ductal protocol (FIG. 2A). Dissociation of pancreatic progenitor cells inhibited acinar differentiation by Day 21 (FIG. 2B).
In general terms: In qPCR the cycle at which signal appears reflects the starting amount.

The mark [3] stands for this setting: sDLL1 for 2 weeks started late, at pancreatic endoderm stage, Day 21.

Entries after “also recorded” stand apart in the source; their conditions may differ.

In the case of `C[C@H](NC(=O)Cc1cc(F)cc(F)c1)C(=O)N[C@H]1N=C(c2ccccc2)c2ccccc2N(C)C1=O` [XXI], in experiment [1], the “PDX1 levels / expression” value is reported as “reduces PDX1 expression; also recorded: lowest PDX1 levels” and the “amylase positive clusters / cells” value is reported as “increases islands of amylase positive cells; also recorded: most increase in amylase positive clusters”.

EGF: growth factor EGF: the “survival and confluency (immunocytochemistry)” value in experiment [2] (dissociated cells exposed to EGF) was “increased survival and confluency”. For the same molecule, the “levels of ductal markers KRT19, HNF1B, SOX9, FOXA2” value in experiment [2] (dissociated cells with exposure to EGF) is “increased levels of ductal KRT19, HNF1B, SOX9, and FOXA2 markers”.

B1: sDLL1: Notch-activating ligand; extracellular signaling domain of DLL1 (protein, UniProt O00548 18-545, looked up)
extracellular domain: QVWSSGVFELKLQEFVNKKGLLGNRNCCRGGAGPPPCACRTFFRVCLKHYQASVSPEPPCTYGSAVTPVLGVDSFSLPDGGGADSAFSNPIRFPFGFTWPGTFSLIIEALHTDSPDDLATENPERLISRLATQRHLTVGEEWSQDLHSSGRTDLKYSYRFVCDEHYYGEGCSVFCRPRDDAFGHFTCGERGEKVCNPGWKGPYCTEPICLPGCDEQHGFCDKPGECKCRVGWQGRYCDECIRYPGCLHGTCQQPWQCNCQEGWGGLFCNQDLNYCTHHKPCKNGATCTNTGQGSYTCSCRPGYTGATCELGIDECDPSPCKNGGSCTDLENSYSCTCPPGFYGKICELSAMTCADGPCFNGGRCSDSPDGGYSCRCPVGYSGFNCEKKIDYCSSSPCSNGAKCVDLGDAYLCRCQAGFSGRHCDDNVDDCASSPCANGGTCRDGVNDFSCTCPPGYTGRNCSAPVSRCEHAPCHNGATCHERGHRYVCECARGYGGPNCQFLLPELPPGPAVVDLTEKLEGQGGPFPW
modifications: extracellular domain
notes: extracellular signaling domain of DLL1
As to B1, in experiment [1], the “PDX1 levels / expression” value is “does not increase the Amylase positive clusters or decrease PDX1 levels” and the “amylase positive clusters / cells” value is reported as “does not increase the Amylase positive clusters”. In experiment [2] (setting [3]), the “C-Peptide+ endocrine cells” value was “C-Peptide was elevated; also recorded: higher amount of C-Peptide^+ endocrine cells” and the ductal markers result is listed as “no increase in ductal markers”.

B2: FGF10: growth factor added to increase proliferation of pancreatic cells; activates PDX1 (protein, UniProt O15520 38-208, looked up)
Fibroblast growth factor 10: QALGQDMVSPEATNSSSSSFSSPSSAGRHVRSYNHLQGDVRWRKLFSFTKYFLKIEKNGKVSGTKKENCPYSILEITSVEIGVVAVKAINSNYYLAMNKKGKLYGSKEFNNDCKLKERIEENGYNTYASFNWQHNGRQMYVALNGKGAPRRGQKTRRKNTSAHFLPMVVHS
In the case of B2, the “CTRC and amylase positive cell expression” value in experiment [1] (FGF10 tested at 0, 2.5, 20 and 50 ng/mL, result for 20 ng) was “most CTRC and amylase positive cell expression”.
